In publication doi:10.1101/2021.12.03.471045 (bioRxiv, 2021):

B1: mAb 158 Fab (Fab, V domains shown)
VH: EVQLLESGGDLIQPGGSLRLSCAASGVTVSSNYMSWVRQAPGKGLEWVSIIYPGGSTFYADSVKGRFTISRDNSKNTLYLQMHSLRAEDTAVYYCARDLGSGDMDVWGKGTTVTVSS
VL: DIVMTQSPSFLSASVGDRVTITCRASQGISSYLAWYQQKPGKAPKLLIQAASTLQSGVPSRFSGSGSGTEFTLTISSLQPEDFATYYCQQLNSYRYTFGQGTKVEIK
B2: mAb 58 Fab (Fab, V domains shown)
VH: QVQLVESGGGLVQPGRSLRLSCAASGFTFDDYAMHWVRQPPGKGLEWVSGVSWNSGTIGYADSVKGRFIISRDNAKNSLYLQMNSLKAEDTALYYCAREVGGTFGVLISREGGLDYWGQGTLVTVSS
VL: SYELTQPPSVSVAPGQTARITCGGNTIGSKSVHWYQQRPGQAPVLVVYDDSDRPSGIPERFSGSNSGNTATLTISRVEAGDEADYYCQVWDSSSDRVVFGGGTKLTVL

Target: early pandemic (Wuhan) SARS-CoV-2 RBD (SARS-CoV-2, UniProt P0DTC2)
Test: crystal structure
Details: both partners purified

| Binder | binding result |
| --- | --- |
| B1 | binds |
| B2 | binds |
